For one experiment, the target named is HLA-B*07:02. In words: IEDB peptide-MHC binding, purified MHC/direct/fluorescence; filed as Kd, often an IC50 or EC50 that approximates it; ≥ and ≤ were set here for values at or beyond the usual limits of such assays.
The target of experiment [1] is HLA-B*51:01. Described as above.
In experiment [2] the target is HLA-B*40:01. In words: IEDB peptide-MHC binding, purified MHC/competitive/fluorescence; filed as Kd, often an IC50 or EC50 that approximates it; ≥ and ≤ were set here for values at or beyond the usual limits of such assays.
Another experiment addresses HLA-B*15:42. Described as above. The note with it: source organism: Yersinia pestis Nepal516.
In another experiment the target is HLA-B*83:01. The description is as above. The settings on record: source organism: Yersinia pestis Nepal516.
For the next experiment, the target named is HLA-B*45:06. The description is as above. The note with it: source organism: Yersinia pestis Nepal516.
Experiment [3] has as its target HLA-B*57:01. In words: IEDB peptide-MHC binding, purified MHC/competitive/radioactivity; filed as Kd, often an IC50 or EC50 that approximates it; ≥ and ≤ were set here for values at or beyond the usual limits of such assays.
Experiment [4] concerns the target HLA-B*58:01. The experiment is described as above.
Experiment [5] deals with HLA-A*01:01. The experiment is described as above.
In experiment [6] the target is HLA-A*68:02. Described as above.
Experiment [7] concerns the target HLA-B*15:01. The experiment is described as follows: IEDB peptide-MHC binding, purified MHC/competitive/fluorescence; filed as Kd, often an IC50 or EC50 that approximates it; ≥ and ≤ were set here for values at or beyond the usual limits of such assays. The settings on record: source organism: Escherichia coli O139:H28 str. E24377A.
Experiment [8] deals with HLA-B*57:01. In words: IEDB peptide-MHC binding, purified MHC/direct/fluorescence; filed as Kd, often an IC50 or EC50 that approximates it; ≥ and ≤ were set here for values at or beyond the usual limits of such assays. The settings on record: source organism: Orthohantavirus andesense.
Experiment [9] concerns the target HLA-B*40:01. Described as above. The note with it: source organism: Orthohantavirus andesense.
The target of a further experiment is HLA-B*27:05. Described as above. The settings on record: source organism: Orthohantavirus andesense.
The next experiment addresses HLA-B*18:01. The experiment is described as above. The settings on record: source organism: Orthohantavirus andesense.
For experiment [10], the target named is HLA-B*15:01. The experiment is described as above. The note with it: source organism: Orthohantavirus andesense.
Another experiment concerns the target HLA-A*02:12. The experiment is described as above. The settings on record: source organism: Orthohantavirus andesense.
The next experiment addresses HLA-B*48:01. The experiment is described as above. The note with it: source organism: Orthohantavirus andesense.
In experiment [11] the target is HLA-A*01:01. The description is as above. The note with it: source organism: Orthohantavirus andesense.
Experiment [12] has as its target HLA-A*68:02. Described as above. The settings on record: source organism: Orthohantavirus andesense.
A further experiment has as its target HLA-A*31:01. The description is as above. The note with it: source organism: Orthohantavirus andesense.
For experiment [13], the target named is HLA-B*58:01. The experiment is described as above. The note with it: source organism: Orthohantavirus andesense.
Another experiment has as its target HLA-A*69:01. The experiment is described as above. The settings on record: source organism: Orthohantavirus andesense.
The target of the next experiment is HLA-A*03:01. Described as above. The settings on record: source organism: Orthohantavirus andesense.
The next experiment concerns the target HLA-A*11:01. The experiment is described as above. The note with it: source organism: Orthohantavirus andesense.
The next experiment addresses HLA-B*08:01. Described as above. The settings on record: source organism: Orthohantavirus andesense.
Another experiment addresses HLA-A*02:01. Described as above. The note with it: source organism: Orthohantavirus andesense.
Another experiment concerns the target HLA-B*46:01. The experiment is described as above. The settings on record: source organism: Orthohantavirus andesense.
The target of a further experiment is HLA-A*29:02. Described as above. The settings on record: source organism: Orthohantavirus andesense.
The target in the next experiment is HLA-B*39:01. In words: IEDB peptide-MHC binding, purified MHC/competitive/fluorescence; filed as Kd, often an IC50 or EC50 that approximates it; ≥ and ≤ were set here for values at or beyond the usual limits of such assays. The settings on record: source organism: Orthohantavirus andesense.
The target of the next experiment is HLA-A*26:01. The experiment is described as above. The settings on record: source organism: Orthohantavirus andesense.
A further experiment deals with HLA-B*27:03. The description is as above. The note with it: source organism: Orthohantavirus andesense.
The target in the next experiment is HLA-B*15:17. The experiment is described as above. The settings on record: source organism: Orthohantavirus andesense.
In experiment [14] the target is HLA-B*51:01. The description is as above. The note with it: source organism: Orthohantavirus andesense.
The target in the next experiment is HLA-B*53:01. In words: IEDB peptide-MHC binding, purified MHC/competitive/radioactivity; filed as Kd, often an IC50 or EC50 that approximates it; ≥ and ≤ were set here for values at or beyond the usual limits of such assays. The note with it: source organism: Dengue virus 4 Philippines/H241/1956.
[15] abbreviates: source organism: Brucella abortus.
Where [16] appears, read: source organism: Dengue virus 4 Philippines/H241/1956.
Setting [17] is: source organism: Dengue virus 1 Brazil/97-11/1997.
Where [18] appears, read: source organism: Dengue virus 3 Martinique/1243/1999.

The source of these data is the Immune Epitope Database (IEDB).

For orientation: Kd means the concentration at which binding is half-saturated. Take LPAIIRPSF: the Kd in the experiment with HLA-B*07:02 (setting [15]) was 104 nM; with HLA-B*51:01 [1] (setting [15]), not below 20000 nM.

Consider AEYLYADGI, for which the dissociation constant (Kd) with HLA-B*40:01 [2] (source organism: Yersinia pestis Nepal516) was 4.3 nM; with HLA-B*15:42 it was not below 5000 nM; with HLA-B*83:01 it was not below 5000 nM; with HLA-B*45:06 it was not below 5000 nM.

In the case of GADTSEVHW, the dissociation constant (Kd) with HLA-B*57:01 [3] (setting [16]) was found to be 987 nM; with HLA-B*58:01 [4] (setting [16]), 66.3 nM.

Take TEAKIISLL: the dissociation constant (Kd) with HLA-B*40:01 [2] (source organism: Shigella flexneri 5 str. 8401) is 8.1 nM.

In the experiment with HLA-B*40:01 [2] (source organism: Influenza A virus (A/swine/Italy/1509-6/97(H1N1))), AEIEDLIFL returned a dissociation constant Kd of 0.5 nM.

ESSKNQTWQI: the Kd was not below 23000 nM with HLA-B*57:01 [3] (setting [16]), not below 70400 nM with HLA-A*01:01 [5] (setting [16]), 701 nM in the experiment with HLA-A*68:02 [6] (setting [16]) and 1590 nM with HLA-B*58:01 [4] (setting [16]).

Turning to VASAAQRRGR, the dissociation constant Kd with HLA-B*58:01 [4] (setting [17]) was determined as 160 nM.

As to AENHFLVGL, the Kd in the experiment with HLA-B*40:01 [2] (source organism: Escherichia coli O139:H28 str. E24377A) was 2.5 nM; in the experiment with HLA-B*15:01 [7] it was not below 20000 nM.

As for LTGGVTLFF, the results for the dissociation constant (Kd) with HLA-A*01:01 [5] (setting [17]) and in the experiment with HLA-B*58:01 [4] (setting [17]) were 18900 nM and 107 nM, respectively.

On to QTQRSGVLW, for which the Kd in the experiment with HLA-B*57:01 [3] (setting [18]) came to 18.7 nM; in the experiment with HLA-B*58:01 [4] (setting [18]), 1.47 nM.

As for MPSSYAAGM, the Kd with HLA-B*51:01 [1] (source organism: Giardia lamblia ATCC 50803) was determined as 863 nM.

For ESWEEVPYLG, the Kd with HLA-B*58:01 [4] (source organism: Dengue virus 2 Jamaica/1409/1983) was 589 nM.

Turning to ASGKLVTQW, the results for the Kd in the experiment with HLA-B*57:01 [3] (setting [16]) and in the experiment with HLA-B*58:01 [4] (setting [16]) were 137 nM and 15.7 nM, respectively.

In the case of SASSMINGVV, the Kd came out at 1990 nM in the experiment with HLA-B*57:01 [3] (setting [18]), 165 nM with HLA-A*68:02 [6] (setting [18]) and 6380 nM with HLA-B*58:01 [4] (setting [18]).

GTSLTQKVVI: the results for the dissociation constant Kd with HLA-B*57:01 [3] (setting [18]) and with HLA-B*58:01 [4] (setting [18]) were 2300 nM and 194 nM, respectively.

Take SIKFKRKLM: the Kd in the experiment with HLA-B*57:01 [8], with HLA-B*40:01 [9], with HLA-B*27:05, in the experiment with HLA-B*18:01, with HLA-B*15:01 [10] and with HLA-A*02:12 was not below 20000 nM each time. In addition, the Kd with HLA-B*48:01, with HLA-A*01:01 [11], with HLA-A*68:02 [12], with HLA-A*31:01, in the experiment with HLA-B*58:01 [13] and with HLA-A*69:01 was not below 20000 nM each time. Further, the dissociation constant (Kd) in the experiment with HLA-A*03:01 was not below 20000 nM; with HLA-A*11:01, not below 20000 nM; in the experiment with HLA-B*08:01, not below 5000 nM; in the experiment with HLA-B*07:02 (source organism: Orthohantavirus andesense), not below 20000 nM; with HLA-A*02:01, not below 20000 nM; with HLA-B*46:01, not below 20000 nM. The Kd with HLA-A*29:02, in the experiment with HLA-B*39:01, with HLA-A*26:01, in the experiment with HLA-B*27:03, with HLA-B*15:17 and in the experiment with HLA-B*51:01 [14] was not below 20000 nM in each case.

For QELSDAPFL, the Kd with HLA-B*40:01 [2] (source organism: Influenza A virus (A/Hokkaido/20/89(H3N2))) is 2 nM.

For the sequence IAVASGLLW, the dissociation constant (Kd) was 2.21 nM with HLA-B*57:01 [3] (setting [16]), 0.661 nM with HLA-B*58:01 [4] (setting [16]) and 31.2 nM in the experiment with HLA-B*53:01.
